Reference: article PMC5149402 (Structure (London, England : 1993), 2016)
Residue numbers refer to the chain shown, from its start.

B1: rat Neurexin-1α (+SS4), domains LNS2 to LNS6 (domain or fragment)
chain: not shown
B2: rat Cerebellin-1 C34,38S double mutant (trimer) (natural protein, UniProt P63182 22-193, looked up)
chain: QNETEPIVLEGKSLVVSDSNPTSDPTGTALGISVRSGSAKVAFSAIRSTNHEPSEMSNRTMIIYFDQVLVNIGNNFDSERSTFIAPRKGIYSFNFHVVKVYNRQTIQVSLMLNGWPVISAFAGDQDVTREAASNGVLIQMEKGDRAYLKLERGNLMGGWKYSTFSGFLVFPL
B3: full-length rat Cerebellin-1, wild type (hexamer) (natural protein, UniProt P63182 22-193, looked up)
chain: B2 chain with S13C, S17C

What was measured:
[1] = molecular target: B3; assay: ITC
SEC = molecular target: the molecule itself; assay: SEC
[2] = molecular target: rat Neurexin-1β (+SS4), residues S48 to P292 (β-unique N-terminal region plus LNS6) (rat, UniProt Q63373 48-292); assay: ITC
Chain of rat Neurexin-1β (+SS4), residues S48 to P292 (β-unique N-terminal region plus LNS6) (Q63373 48-292): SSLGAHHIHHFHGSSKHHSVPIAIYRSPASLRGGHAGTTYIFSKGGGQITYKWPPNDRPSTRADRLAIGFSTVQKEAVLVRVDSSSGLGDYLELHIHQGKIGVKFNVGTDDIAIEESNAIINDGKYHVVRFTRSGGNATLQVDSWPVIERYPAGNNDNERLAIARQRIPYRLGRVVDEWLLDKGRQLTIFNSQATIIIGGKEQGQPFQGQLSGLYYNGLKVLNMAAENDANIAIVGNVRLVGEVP

non-reducing SDS-PAGE = molecular target: the molecule itself; assay: non-reducing SDS-PAGE

Binder: B1
- Kd [1]: 35 nM
- stoichiometry N [1]: 0.912 ± 0.045

Binder: B2
- stoichiometry N (SEC): 3

Binder: B3
- Kd [2]: 47 nM
- stoichiometry N (non-reducing SDS-PAGE): 2
